{
  "source": "patent US20200262885A1",
  "about": "(ANTAROS MEDICAL, published 2020)",
  "molecules": {"B1": {"name": "SEQ ID NO: 12 (peptide)", "peptide": "XSQGTFTSDXSKQXESRRAQEFIEWLLXGGPESGAPPPSX", "modifications": "Tza at 1; Tle at 10; Nle at 14; Bal at 28; Cys(VS-DO3A(Ga)) at 40; C-terminal amide"}},
  "data": [
    {"molecular_target": "human GLP-1 receptor (human, UniProt P43220 24-463)", "assay": "cell-based or functional assay", "units": {"EC50 hGLP-1 R [pM]": "pM"}, "values": [
      {"molecule": "XSQGTFTSDYSKQLESRRAQEFIEWLLAGGPESGAPPPSX (Tza at 1; Cys(VS-DO3A(Ga)) at 40; C-terminal -OH)", "note": "[SEQ ID NO: 80]", "EC50 hGLP-1 R [pM]": 5130},
      {"molecule": "B1", "EC50 hGLP-1 R [pM]": 12900},
      {"molecule": "XSQGTFTSDYSKQLESRRAQEFIEWLLATGPESGAPPPSX (Tza at 1; Cys(VS-DO3A(Ga)) at 40; C-terminal amide)", "note": "[SEQ ID NO: 34]", "EC50 hGLP-1 R [pM]": 18800},
      {"molecule": "XSQGTFTSDYSKQLESRRAQEFIEWLLAGGPESGAPPPSX (Tza at 1; Cys(mal-NOTA(Ga)) at 40; C-terminal amide)", "note": "[SEQ ID NO: 9]", "EC50 hGLP-1 R [pM]": 4200},
      {"molecule": "XSQGTFTSDTSKQLESRRAQEFIEWLLATGPESGAPPPSX (Tza at 1; Cys(VS-DO3A(Ga)) at 40; C-terminal amide)", "note": "[SEQ ID NO: 48]", "EC50 hGLP-1 R [pM]": 297000},
      {"molecule": "XSQGTFTSDTSKQLESRRAQEFIEWLLATGPESGAPPPSX (Tza at 1; Cys(VS-DO3A) at 40; C-terminal amide)", "note": "[SEQ ID NO: 47]", "EC50 hGLP-1 R [pM]": "1e+07"},
      {"molecule": "XSQGTFTSDYSKQLESRRAQEFIEWLLAGGPESGAPPPSX (Tza at 1; Cys(VS-DO3A(Ga)) at 40; C-terminal amide)", "note": "[SEQ ID NO: 8]", "EC50 hGLP-1 R [pM]": 4130},
      {"molecule": "XSQGTFXSDLSKQXESRRAQDFIEWLLATGPESGAPPPSX (Tza at 1; Aib at 7; Nle at 14; Cys(mal-NODAGA) at 40; C-terminal amide)", "note": "[SEQ ID NO: 17]", "EC50 hGLP-1 R [pM]": "1e+07"},
      {"molecule": "XSQGTFXSDLSKQXESRRAQDFIEWLLATGPESGAPPPSX (Tza at 1; Aib at 7; Nle at 14; Cys(mal-NOTA) at 40; C-terminal amide)", "note": "[SEQ ID NO: 16]", "EC50 hGLP-1 R [pM]": "1e+07"},
      {"molecule": "XXQGTFTSDYSKQLDEQRAQEFIEWLLATGPESGAPPPSX (Tza at 1; D-Ser at 2; Cys(VS-DO3A(Ga)) at 40; C-terminal amide)", "note": "[SEQ ID NO: 86]", "EC50 hGLP-1 R [pM]": 115000},
      {"molecule": "XSQGTFTSDYSKQLESRRAQEFIEWLLAGGPESGAPPPSX (Tza at 1; Cys(mal-DOTA(Ga)) at 40; C-terminal amide)", "note": "[SEQ ID NO: 7]", "EC50 hGLP-1 R [pM]": 7530},
      {"molecule": "XSQGTFTSDISKQXESRRAQEFIEWLLATGPESGAPPPSX (Tza at 1; Nle at 14; Cys(VS-DO3A(Ga)) at 40; C-terminal amide)", "note": "[SEQ ID NO: 36]", "EC50 hGLP-1 R [pM]": 65300},
      {"molecule": "XSQGTFXSDLAKQXESRRAQDFIEWLLATGPESGAPPPSX (Tza at 1; Aib at 7; Nle at 14; Cys(VS-DO3A) at 40; C-terminal amide)", "note": "[SEQ ID NO: 31]", "EC50 hGLP-1 R [pM]": "1e+07"},
      {"molecule": "XSQGTFXSDLSKQXESRRAKDFIEWLLATGPESGAPPPSX (Tza at 1; Aib at 7; Nle at 14; Cys(VS-DO3A) at 40; C-terminal amide)", "note": "[SEQ ID NO: 51]", "EC50 hGLP-1 R [pM]": "1e+07"}
    ]},
    {"molecular_target": "human glucagon receptor (human, UniProt P47871 26-477)", "assay": "cell-based or functional assay", "units": {"EC50 hGLUC R": "pM", "EC50 hGLUC R [pM]": "pM"}, "values": [
      {"molecule": "HSQGTFTSDYSKYLDSRRAQDFVQWLM^27-N-T-C(VS-DO3A)-NH2 (peptide)", "EC50 hGLUC R": 0.7},
      {"molecule": "XSQGTFTSDYSKQLESRRAQEFIEWLLAGGPESGAPPPSX (Tza at 1; Cys(VS-DO3A(Ga)) at 40; C-terminal -OH)", "note": "[SEQ ID NO: 80]", "EC50 hGLUC R [pM]": 0.7},
      {"molecule": "B1", "EC50 hGLUC R [pM]": 0.7},
      {"molecule": "XSQGTFTSDYSKQLESRRAQEFIEWLLATGPESGAPPPSX (Tza at 1; Cys(VS-DO3A(Ga)) at 40; C-terminal amide)", "note": "[SEQ ID NO: 34]", "EC50 hGLUC R [pM]": 0.8},
      {"molecule": "XSQGTFTSDYSKQLESRRAQEFIEWLLAGGPESGAPPPSX (Tza at 1; Cys(mal-NOTA(Ga)) at 40; C-terminal amide)", "note": "[SEQ ID NO: 9]", "EC50 hGLUC R [pM]": 1},
      {"molecule": "XSQGTFTSDTSKQLESRRAQEFIEWLLATGPESGAPPPSX (Tza at 1; Cys(VS-DO3A(Ga)) at 40; C-terminal amide)", "note": "[SEQ ID NO: 48]", "EC50 hGLUC R [pM]": 60.1},
      {"molecule": "XSQGTFTSDYSRQLESRRAQEFIEWLLATGPESGAPPPSX (Tza at 1; Lys(VS-DO3A(Ga)) at 40; C-terminal amide)", "note": "[SEQ ID NO: 44]", "EC50 hGLUC R [pM]": 0.8},
      {"molecule": "XXQGTFTSDYSKQLDEQRAQEFIEWLLATGPESGAPPPSX (Tza at 1; D-Ser at 2; Cys(VS-DO3A(Ga)) at 40; C-terminal amide)", "note": "[SEQ ID NO: 86]", "EC50 hGLUC R [pM]": 0.9},
      {"molecule": "XSQGTFTSDYSKQLESRRAQEFIEWLLAGGPESGAPPPSX (Tza at 1; Cys(mal-NODAGA(Ga)) at 40; C-terminal amide)", "note": "[SEQ ID NO: 10]", "EC50 hGLUC R [pM]": 0.9}
    ]}
  ]
}
